From publication doi:10.1101/2024.09.27.615457 (bioRxiv, 2024)

Biological target: T1, MBP-tagged bHLH107 (Arabidopsis, UniProt Q9LET0 1-230)
T1 sequence (looked up): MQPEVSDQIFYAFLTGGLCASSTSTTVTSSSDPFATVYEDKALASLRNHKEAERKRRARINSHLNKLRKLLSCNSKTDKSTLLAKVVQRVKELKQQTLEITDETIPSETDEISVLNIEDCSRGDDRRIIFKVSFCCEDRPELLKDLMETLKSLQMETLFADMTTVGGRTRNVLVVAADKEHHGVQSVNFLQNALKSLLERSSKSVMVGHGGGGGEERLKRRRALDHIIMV
Assay: pull-down

binding result: binds
B1: His-tagged HY5 (natural protein, Arabidopsis, UniProt O24646 1-168, looked up)
chain: MQEQATSSLAASSLPSSSERSSSSAPHLEIKEGIESDEEIRRVPEFGGEAVGKETSGRESGSATGQERTQATVGESQRKRGRTPAEKENKRLKRLLRNRVSAQQARERKKAYLSELENRVKDLENKNSELEERLSTLQNENQMLRHILKNTTGNKRGGGGGSNADASL
